# Assay results from patent US20230052369A1 (Zymeworks, published 2023).
# Numbering of substitutions follows the chain as printed.
# B1: v28730 (antibody, human IgG1, kappa, L234A L235A, V domains shown)
# VH: EVQLVESGGGLIQPGGSLRISCAVSGFSLTTYAISWVRQAPGKGLEWLGIIWPGGGTNYADSLKGRLTISKDNSKNTVYLQMNSLRTEDTAVYYCARGAGTWYFDVWGQGTLVTVSS
# VL: DIQMTQSPSSLSASVGDRVTITCSASQGISNYLNWYQQKPGKTVKLLIYYTSSLHSGVPSRFSGSGSGTDYTLTISSLQPEDIATYYCQQYSKFPWTFGQGTKLEIKR
# notes: also called humanized 1C8 H8L3
# B2: v28728 (antibody, human IgG1, kappa, L234A L235A, V domains shown)
# VH: B1 VH
# VL: B1 VL with T43A, V44P
# notes: also called humanized 1C8 H8L2
# B3: v28727 (antibody, human IgG1, kappa, L234A L235A, V domains shown)
# VH: B1 VH
# VL: B1 VL with T43A, V44P, Y71F, L73F, L104V
# notes: also called humanized 1C8 H8L1
# B4: v28688 (antibody, human IgG1, kappa, L234A L235A, V domains shown)
# VH: EVQLVESGGGLVQPGGSLRLSCAASGFTFSEFGMHWVRQAPGKGLEWVAYISSGGSTIYYADSVKGRFTISRDNAKNSLYLQMNSLRAEDTAVYYCARDWVDYWGQGTLLTVSS
# VL: EIVLTQSPATLSLSPGERATLSCKASENVGSYVSWYQQKPGQAPRLLIYGASNRYTGVPARFSGSGSGTDFTLTISSLEPEDFAVYYCGQSYSYPLTFGGGTKVEIKR
# notes: also called humanized 1G1 H2L2
# B5: v28683 (antibody, human IgG1, kappa, L234A L235A, V domains shown)
# VH: B4 VH with A49S, L110V
# VL: B4 VL with V58I
# notes: also called humanized 1G1 H1L1
# B6: v28684 (antibody, human IgG1, kappa, L234A L235A, V domains shown)
# VH: B4 VH with A49S, L110V
# VL: B4 VL
# notes: also called humanized 1G1 H1L2
# B7: v28685 (antibody, human IgG1, kappa, L234A L235A, V domains shown)
# VH: B4 VH with A49S, L110V
# VL: B4 VL with L4M, A19V, L78V, V104L, I106L
# notes: also called humanized 1G1 H1L3
# B8: v28687 (antibody, human IgG1, kappa, L234A L235A, V domains shown)
# VH: B4 VH
# VL: B4 VL with V58I
# notes: also called humanized 1G1 H2L1
# B9: v28689 (antibody, human IgG1, kappa, L234A L235A, V domains shown)
# VH: B4 VH
# VL: B4 VL with L4M, A19V, L78V, V104L, I106L
# notes: also called humanized 1G1 H2L3
# B10: v28690 (antibody, human IgG1, kappa, L234A L235A, V domains shown)
# VH: B4 VH
# VL: B4 VL with L4M, A19V, L78V, F83L, V104L, I106L
# notes: also called humanized 1G1 H2L4
# B11: v28691 (antibody, human IgG1, kappa, L234A L235A, V domains shown)
# VH: B4 VH with V93M
# VL: B4 VL with V58I
# notes: also called humanized 1G1 H3L1
# B12: v28692 (antibody, human IgG1, kappa, L234A L235A, V domains shown)
# VH: B4 VH with V93M
# VL: B4 VL
# notes: also called humanized 1G1 H3L2
# B13: v28693 (antibody, human IgG1, kappa, L234A L235A, V domains shown)
# VH: B4 VH with V93M
# VL: B4 VL with L4M, A19V, L78V, V104L, I106L
# notes: also called humanized 1G1 H3L3
# B14: v28694 (antibody, human IgG1, kappa, L234A L235A, V domains shown)
# VH: B4 VH with V93M
# VL: B4 VL with L4M, A19V, L78V, F83L, V104L, I106L
# notes: also called humanized 1G1 H3L4
# B15: v28705 (antibody, human IgG1, kappa, L234A L235A, V domains shown)
# VH: QVQLQESGPGLVKPSETLSITCTVSGFSLISYGVHWVRQPPGKGLEWLGVIWSGGSTDYNPSLKSRVTISKDTSKNQVSFKLSSLTAADTAIYYCARNPLTATVMDYWGQGTLVTVSS
# VL: DIQMTQSPSSLSASVGDRVTVTCRASQNVGTNVAWYQQKPGKAPKALIYSASYRDSGVPSRFSGSGSGTDFTLTISSVQPEDFATYYCQQYNSYPLTFGGGTKLEIKR
# notes: also called humanized 5G8 H3L3
# B16: v28698 (antibody, human IgG1, kappa, L234A L235A, V domains shown)
# VH: B15 VH with I20L, V37I, L48I, K71V, V78F, F80L, L85V, I92V
# VL: B15 VL with F83L
# notes: also called humanized 5G8 H1L4
# B17: v28700 (antibody, human IgG1, kappa, L234A L235A, V domains shown)
# VH: B15 VH with I20L, V78F, F80L, L85V, I92V
# VL: B15 VL with V21I, V78L, L104V
# notes: also called humanized 5G8 H2L2
# B18: v28701 (antibody, human IgG1, kappa, L234A L235A, V domains shown)
# VH: B15 VH with I20L, V78F, F80L, L85V, I92V
# VL: B15 VL
# notes: also called humanized 5G8 H2L3
# B19: v28702 (antibody, human IgG1, kappa, L234A L235A, V domains shown)
# VH: B15 VH with I20L, V78F, F80L, L85V, I92V
# VL: B15 VL with F83L
# notes: also called humanized 5G8 H2L4
# B20: v28703 (antibody, human IgG1, kappa, L234A L235A, V domains shown)
# VH: B15 VH
# VL: B15 VL with V21I, Y36F, A46S, V78L, L104V
# notes: also called humanized 5G8 H3L1
# B21: v28704 (antibody, human IgG1, kappa, L234A L235A, V domains shown)
# VH: B15 VH
# VL: B15 VL with V21I, V78L, L104V
# notes: also called humanized 5G8 H3L2
# B22: v28706 (antibody, human IgG1, kappa, L234A L235A, V domains shown)
# VH: B15 VH
# VL: B15 VL with F83L
# notes: also called humanized 5G8 H3L4
# B23: v28707 (antibody, human IgG1, kappa, L234A L235A, V domains shown)
# VH: B15 VH with T73N
# VL: B15 VL with V21I, Y36F, A46S, V78L, L104V
# notes: also called humanized 5G8 H4L1
# B24: v28711 (antibody, human IgG1, kappa, L234A L235A, V domains shown)
# VH: B15 VH with T73N
# VL: B15 VL with V21I, V78L, L104V
# notes: also called humanized 5G8 H4L2
# B25: v28712 (antibody, human IgG1, kappa, L234A L235A, V domains shown)
# VH: B15 VH with T73N
# VL: B15 VL
# notes: also called humanized 5G8 H4L3
# B26: v28713 (antibody, human IgG1, kappa, L234A L235A, V domains shown)
# VH: B15 VH with T73N
# VL: B15 VL with F83L
# notes: also called humanized 5G8 H4L4
# B27: v23800 (antibody, human IgG1, kappa)
# heavy: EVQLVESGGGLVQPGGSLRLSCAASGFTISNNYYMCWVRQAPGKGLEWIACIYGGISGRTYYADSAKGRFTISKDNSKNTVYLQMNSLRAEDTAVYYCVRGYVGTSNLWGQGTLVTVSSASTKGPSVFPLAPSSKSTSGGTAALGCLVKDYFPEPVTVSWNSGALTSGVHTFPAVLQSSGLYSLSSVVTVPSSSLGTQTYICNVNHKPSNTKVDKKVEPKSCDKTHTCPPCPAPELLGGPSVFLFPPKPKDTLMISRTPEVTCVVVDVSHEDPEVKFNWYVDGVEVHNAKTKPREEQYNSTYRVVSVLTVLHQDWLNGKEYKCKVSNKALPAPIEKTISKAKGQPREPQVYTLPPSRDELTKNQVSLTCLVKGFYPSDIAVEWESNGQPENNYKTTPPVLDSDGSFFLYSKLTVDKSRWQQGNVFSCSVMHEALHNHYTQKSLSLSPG
# light: DIQMTQSPSSLSASVGDRVTITCQASQSIYSSLAWYQQKPGKAPKLLIYDASHLASGVPSRFSGSGSGTDFTLTISSVQPEDFATYYCQGGWYSSAATYVPNTFGGGTKVEVKRTVAAPSVFIFPPSDEQLKSGTASVVCLLNNFYPREAKVQWKVDNALQSGNSQESVTEQDSKDSTYSLSSTLTLSKADYEKHKVYACEVTHQGLSSPVTKSFNRGEC
# notes: also called humanized 8K22 H2L2
# B28: v23795 (antibody, human IgG1, kappa)
# heavy: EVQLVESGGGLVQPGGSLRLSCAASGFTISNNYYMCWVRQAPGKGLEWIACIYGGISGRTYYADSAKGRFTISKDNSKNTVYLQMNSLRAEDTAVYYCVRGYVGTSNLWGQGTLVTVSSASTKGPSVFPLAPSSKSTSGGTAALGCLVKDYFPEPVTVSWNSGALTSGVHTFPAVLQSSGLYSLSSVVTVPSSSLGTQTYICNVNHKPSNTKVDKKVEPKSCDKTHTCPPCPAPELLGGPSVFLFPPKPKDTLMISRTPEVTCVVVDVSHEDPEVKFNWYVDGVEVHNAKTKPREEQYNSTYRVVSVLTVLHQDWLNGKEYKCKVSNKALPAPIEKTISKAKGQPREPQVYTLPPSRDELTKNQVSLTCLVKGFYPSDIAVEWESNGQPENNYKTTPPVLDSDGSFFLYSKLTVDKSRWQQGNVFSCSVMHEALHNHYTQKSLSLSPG
# light: B27 light with V112I
# notes: also called humanized 8K22 H2L1
# B29: v23803 (antibody, human IgG1, kappa)
# heavy: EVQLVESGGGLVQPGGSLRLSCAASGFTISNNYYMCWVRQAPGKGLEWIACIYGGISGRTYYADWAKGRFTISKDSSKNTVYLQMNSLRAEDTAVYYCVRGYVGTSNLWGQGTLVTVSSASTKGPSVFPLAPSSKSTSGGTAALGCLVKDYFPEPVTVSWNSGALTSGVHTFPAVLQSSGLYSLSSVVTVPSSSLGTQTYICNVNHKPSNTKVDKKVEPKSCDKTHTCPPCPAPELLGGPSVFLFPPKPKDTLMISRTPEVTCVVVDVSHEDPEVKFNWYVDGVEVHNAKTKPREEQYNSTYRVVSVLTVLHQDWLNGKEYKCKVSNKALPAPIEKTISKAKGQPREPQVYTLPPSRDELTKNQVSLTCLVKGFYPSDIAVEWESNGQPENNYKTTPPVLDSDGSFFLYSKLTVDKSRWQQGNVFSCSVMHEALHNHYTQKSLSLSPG
# light: B27 light
# notes: also called humanized 8K22 H5L2
# B30: v23810 (antibody, human IgG1, kappa, V domains shown)
# VH: EVQLVESGGGLVQPGGSLRLSCAASGFTISNNYYMCWVRQAPGKGLEWIACIYGGISGRTYYADSAKGRFTISKDNSKNTVYLQMNSLRAEDTAVYYCVRGYVGTSNLWGQGTLVTVSS
# VL: DIQMTQSPSSLSASVGDRVTITCQASQSIYSSLAWYQQKPGKAPKLLIYDASHLASGVPSRFSGSGSGTDFTLTISSVQPEDAATYYCQGGWYSSAATYVPNTFGGGTKVEVKR
# notes: also called humanized 8K22 H2L4
# B31: v23813 (antibody, human IgG1, kappa, V domains shown)
# VH: B30 VH with S65W, N76S
# VL: B30 VL
# notes: also called humanized 8K22 H5L4
# B32: v28726 (antibody, human IgG1, kappa, L234A L235A, V domains shown)
# VH: B1 VH with I20L, L63V, L67F, V78L, T87A
# VL: B1 VL
# notes: also called humanized 1C8 H7L3
# B33: v28686 (antibody, human IgG1, kappa, L234A L235A, V domains shown)
# VH: B4 VH with A49S, L110V
# VL: B4 VL with L4M, A19V, L78V, F83L, V104L, I106L
# notes: also called humanized 1G1 H1L4
# B34: v28696 (antibody, human IgG1, kappa, L234A L235A, V domains shown)
# VH: B15 VH with I20L, V37I, L48I, K71V, V78F, F80L, L85V, I92V
# VL: B15 VL with V21I, V78L, L104V
# notes: also called humanized 5G8 H1L2
# B35: v28697 (antibody, human IgG1, kappa, L234A L235A, V domains shown)
# VH: B15 VH with I20L, V37I, L48I, K71V, V78F, F80L, L85V, I92V
# VL: B15 VL
# notes: also called humanized 5G8 H1L3
# Biological target: T1, human 4-1BB, full-length, expressed on cells (human, UniProt Q07011 24-255)
# T1 construct: also called CD137; TNFRSF9
# T1 sequence (Q07011 24-255): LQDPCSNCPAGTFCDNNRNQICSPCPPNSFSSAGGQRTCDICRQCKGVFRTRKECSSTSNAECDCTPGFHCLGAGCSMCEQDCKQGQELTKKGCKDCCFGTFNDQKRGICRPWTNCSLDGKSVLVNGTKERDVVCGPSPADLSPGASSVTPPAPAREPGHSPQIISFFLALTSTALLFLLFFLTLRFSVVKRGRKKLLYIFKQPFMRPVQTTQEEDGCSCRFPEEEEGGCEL
# Assay: flow cytometry, Jurkat-4-1BB
# Experimental: Jurkat T cells engineered to stably express human 4-1BB were used to measure binding of antibodies to human 4-1BB. Antibodies were diluted in 5 μl FB (PBS 2% FCS) 1:3 from stock in wells of a 96 V-well plate, and cells added on top. The cells were then left on ice for 30 minutes for the antibodies to bind. The cells were then washed twice in FB, and then incubated in 50 μl FB containing 2 μg/ml goat anti-human Alexa647 antibody (Jackson Immunoresearch). The cells were then left on ice for a further 20 minutes, washed twice in FB, resuspended in 100 μl FB and analysed on a BD Fortessa™ X20. The subsequent data files were analysed using FlowJo™ and Prism 7 (GraphPad) using a four-parameter non-linear regression.
row,Binder,EC50
1,B1,88.7 nM
2,B2,713 nM
3,B3,24.2 nM
4,B4,0.36 nM
5,B5,0.223 nM
6,B6,0.247 nM
7,B7,0.0551 nM
8,B8,1 nM
9,B9,0.486 nM
10,B10,0.376 nM
11,B11,1.44 nM
12,B12,0.771 nM
13,B13,0.353 nM
14,B14,0.455 nM
15,B15,3.32 nM
16,B16,38.3 nM
17,B17,56.4 nM
18,B18,30 nM
19,B19,55.6 nM
20,B20,3.58 nM
21,B21,3.46 nM
22,B22,1.92 nM
23,B23,51.6 nM
24,B24,139 nM
25,B25,3.56 nM
26,B26,2.34 nM

# Biological target: T2, recombinant His-tagged human FRα (human, UniProt P15328 25-234)
# T2 construct: Bought protein; also called hFRα; FRα-HIS
# T2 sequence (P15328 25-234 limits assumed): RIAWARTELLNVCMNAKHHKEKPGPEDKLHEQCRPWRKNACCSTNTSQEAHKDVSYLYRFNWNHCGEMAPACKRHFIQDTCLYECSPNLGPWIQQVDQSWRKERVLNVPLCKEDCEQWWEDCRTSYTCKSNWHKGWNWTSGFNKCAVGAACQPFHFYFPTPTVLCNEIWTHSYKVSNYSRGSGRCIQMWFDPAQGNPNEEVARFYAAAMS
# Assay: BLI, supernatant, n=1
# Experimental: The assay buffer used was KB buffer (kinetics buffer, composed of PBS pH 7.4, 0.1% BSA, 0.02% Tween 20, 0.05% sodium azide) supplemented with 0.06% Tween 20. The experiment was conducted at 25° C. with a shake speed of 1000 rpm.
# Data analysis was performed using the Data analysis software 9.0′ (ForteBio). The reference-subtracted binding curves were globally fitted to the 1:1 interaction model to generate the binding kinetic parameters kₒₙ, koff, and the dissociation constant KD.
row,Binder,Kd
1,B27,36.5 nM
2,B28,35.7 nM
3,B29,31.7 nM
4,B30,35 nM
5,B31,34.6 nM

# Biological target: T3, purified human monomeric 4-1BB (human, UniProt Q07011 24-186)
# T3 construct: the assay used the 4-1BB part released by Factor Xa with the Fc removed; also called h4-1BB; human 4-1BB
# T3 sequence (Q07011 other isoform, or with tags, fused parts or gaps limits assumed): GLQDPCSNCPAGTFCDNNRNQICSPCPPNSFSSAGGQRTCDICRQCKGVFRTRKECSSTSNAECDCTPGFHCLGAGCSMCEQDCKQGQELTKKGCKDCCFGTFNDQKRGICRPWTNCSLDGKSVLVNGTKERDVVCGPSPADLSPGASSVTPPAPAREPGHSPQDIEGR
# Assay: SPR, mean n=3;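 also: antibodies captured on anti-human Fc chip, 4-1BB injected as five-point two-fold series from 40 nM by single-cycle kinetics at 25 °C, sensorgrams fitted to 1:1 Langmuir model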
# Experimental: The anti-human Fc surface was prepared on a CMS Series S sensorchip by standard amine coupling methods as described by the manufacturer (GE Healthcare). Briefly, immediately after EDC/NHS activation, a 25 μg/mL solution of anti-human Fc in 10 mM NaOAc pH 4.5 was injected at a flow rate of 10 μL/min for 420 s until approximately 2000 resonance units (RUs) were immobilized on all four flow cells. The remaining active groups were quenched by a 420 s injection of 1M ethanolamine at 10 μL/min.
# Antibodies for analysis were captured onto the anti-Fc surface by injecting 5 μg/mL solutions at a flow rate of 10 μL/min for 60 s. Using single-cycle kinetics, five concentrations of a two-fold dilution series of 4-1BB starting at 40 nM (for both supernatant and purified antibody runs) with a blank buffer control were sequentially injected at 40 μL/min for 180 s with a 600 s dissociation phase, resulting in a set of sensorgrams with a buffer blank reference. Experiments were performed at a constant temperature of 25° C. The anti-human Fc surfaces were regenerated to prepare for the next injection cycle by one pulse of 10 mM Glycine/HCl pH 1.5 for 120 s at 40 μL/min. Blank-subtracted sensorgrams were analyzed using Biacore™ T200 Evaluation Software v3.0. The blank-subtracted sensorgrams were then fit to the 1:1 Langmuir binding model.
# Protein material post protein-A or SEC was assessed for binding to human 4-1BB.
row,Binder,Kd
1,B32,763 nM
2,B1,762 nM
3,B2,1420 nM
4,B3,813 nM
5,B4,69.2 nM
6,B5,42.3 nM
7,B6,38.5 nM
8,B7,31.2 nM
9,B33,31.1 nM
10,B8,40.3 nM
11,B9,58.3 nM
12,B10,34.4 nM
13,B11,54.2 nM
14,B12,46.4 nM
15,B13,36.2 nM
16,B14,34.7 nM
17,B15,195 nM
18,B34,574 nM
19,B35,735 nM
20,B16,1110 nM
21,B17,222 nM
22,B18,610 nM
23,B19,620 nM
24,B20,811 nM
25,B21,179 nM
26,B22,159 nM
27,B23,732 nM
28,B24,227 nM
29,B25,229 nM
30,B26,184 nM
